Columns and labels:
Assay in all cases: immunoprecipitation with anti-RARRES1 antibody from RARRES1-transfected HEK293 cells with or without nocodazole, immunoblot
[1] = target: CDK2 (endogenous, HEK293 cells) (UniProt P24941 1-298)
Protocol: (§1) The cells were lysed in a lysis buffer (20 mM Tris, pH 7.4, 5 mM EDTA, 10 mM Na₄ P₂O₇, 100 mM NaF, 1% NP-40, 1 mM PMSF, 0.2% protease inhibitor cocktail and phosphatase inhibitor). The protein concentrations of the cell lysates were measured using a Pierce BCA Protein Assay kit (Pierce, Rockford, USA). Subsequently, protein lysates were resuspended in a loading buffer, boiled for 5 minutes, and then subjected to SDS-PAGE and immunoblotting with the indicated antibodies. For immunoprecipitation, a TAP buffer (25 mM Tris, pH 7.4, 140 mM NaCl, 0.5% NP-40, 10 mM NaF, 1 mM dithiothreitol (DTT), 1 mM phenylmethylsulphonyl fluoride, 1 mM EDTA, 1 mM Na₃VO₄, 1 mM β-glycerophosphate, 10% glycerol and 0.2% protease inhibitor cocktail and phosphatase inhibitor) was added to the cell lysates, and then the cell lysates were incubated along with a RARRES1 antibody (R & D System, MN, USA) or GST beads at 4° C. Protein expression was detected by chemiluminescence using the SuperSignal West Pico Chemiluminescent Substrate (Pierce).
(§2) In addition, it was examined whether RARRES1 interacted with other CDK-Cyclin complexes, including interphase CDKs (CDK2, CDK4, and CDK6) and their binding partner Cyclins, and immunoprecipitation according to Example 1-8 was performed on 293 cells under the same conditions as those in FIG. 7C.

[2] = target: Cyclin A (endogenous, HEK293 cells) (UniProt P20248 1-432, limits assumed)
Protocol: as §1, §2

[3] = target: CDK4 (endogenous, HEK293 cells) (UniProt P11802 2-303)
Protocol: as §1, §2

[4] = target: T1, Cyclin D (endogenous, HEK293 cells) (UniProt P24385 1-295, limits assumed)
T1 construct: Printed only as 'Cyclin D'; Cyclin D1 is inferred from the antibody list; also called Cyclin D1
Protocol: as §1, §2

Measured: binding result

T1 sequence (P24385 whole entry): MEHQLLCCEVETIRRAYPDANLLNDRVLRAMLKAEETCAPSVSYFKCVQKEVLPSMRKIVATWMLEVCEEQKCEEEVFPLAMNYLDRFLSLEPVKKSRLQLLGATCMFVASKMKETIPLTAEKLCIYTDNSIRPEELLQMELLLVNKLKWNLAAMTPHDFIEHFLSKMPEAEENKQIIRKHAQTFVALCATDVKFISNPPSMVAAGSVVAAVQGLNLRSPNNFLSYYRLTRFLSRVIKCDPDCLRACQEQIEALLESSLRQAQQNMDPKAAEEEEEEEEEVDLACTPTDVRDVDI
Sequence of CDK4 (endogenous, HEK293 cells) (P11802 2-303 limits assumed): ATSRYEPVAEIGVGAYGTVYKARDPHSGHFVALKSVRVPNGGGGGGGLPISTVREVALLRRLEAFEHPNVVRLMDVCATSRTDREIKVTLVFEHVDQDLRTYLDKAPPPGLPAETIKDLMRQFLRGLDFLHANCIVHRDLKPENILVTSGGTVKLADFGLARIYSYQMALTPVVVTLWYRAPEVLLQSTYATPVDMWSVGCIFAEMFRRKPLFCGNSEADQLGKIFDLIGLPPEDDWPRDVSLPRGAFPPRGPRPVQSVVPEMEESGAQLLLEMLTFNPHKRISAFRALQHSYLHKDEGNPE
Sequence of Cyclin A (endogenous, HEK293 cells) (P20248 whole entry): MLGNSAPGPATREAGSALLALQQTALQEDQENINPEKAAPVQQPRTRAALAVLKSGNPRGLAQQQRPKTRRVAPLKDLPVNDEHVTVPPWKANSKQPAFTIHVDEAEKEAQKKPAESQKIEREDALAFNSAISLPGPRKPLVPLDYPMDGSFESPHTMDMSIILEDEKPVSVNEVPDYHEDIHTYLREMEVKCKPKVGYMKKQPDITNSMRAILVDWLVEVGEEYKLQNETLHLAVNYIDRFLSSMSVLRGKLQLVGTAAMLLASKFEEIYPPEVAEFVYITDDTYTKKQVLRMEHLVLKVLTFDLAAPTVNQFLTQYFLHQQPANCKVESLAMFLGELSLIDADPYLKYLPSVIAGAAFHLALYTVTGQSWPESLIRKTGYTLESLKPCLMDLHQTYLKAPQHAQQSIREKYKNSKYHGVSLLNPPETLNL

B1: retinoic acid receptor responder 1 (RARRES1), isoform 1, wild type, overexpressed in HEK293 cells (other)
chain: MQPRRQRLPAPWSGPRGPRPTAPLLALLLLLAPVAAPAGSGDPDDPGQPQDAGVPRRLLQQAARAALHFFNFRSGSPSALRVLAEVQEGRAWINPKEGCKVHVVFSTERYNPESLLQEGEGRLGKCSARVFFKNQKPRPTINVTCTRLIEKKKRQQEDYLLYKQMKQLKNPLEIVSIPDNHGHIDPSLRLIWDLAFLGSSYVMWEMTTQVSHYYLAQLTSVRQWKTNDDTIDFDYTVLLHELSTQEIIPCRIHLVWYPGKPLKVKYHCQELQTPEEASGTEEGSAVVPTELSNF
notes: also called RARRES1-1
no binding: all assays above
